Laboratory results: patent publication US20150010546A1 (Ablynx, published 2015)
One block for each binder: values may come before it.

How the values were obtained:
[1] = biological target: T1, human HGF (R&D Systems, 294-HG/CF) (human, UniProt P14210 32-728); assay: SPR (Biacore T100), HGF amine-coupled to CM5 chip, periplasmic extract at one dilution
T1 construct: The entry begins at QRKRR, without signal peptide; Amine-coupled to the chip in SPR and biotinylated in AlphaScreen; also called rec hHGF (R&D systems)
T1 sequence (P14210 32-728 limits assumed): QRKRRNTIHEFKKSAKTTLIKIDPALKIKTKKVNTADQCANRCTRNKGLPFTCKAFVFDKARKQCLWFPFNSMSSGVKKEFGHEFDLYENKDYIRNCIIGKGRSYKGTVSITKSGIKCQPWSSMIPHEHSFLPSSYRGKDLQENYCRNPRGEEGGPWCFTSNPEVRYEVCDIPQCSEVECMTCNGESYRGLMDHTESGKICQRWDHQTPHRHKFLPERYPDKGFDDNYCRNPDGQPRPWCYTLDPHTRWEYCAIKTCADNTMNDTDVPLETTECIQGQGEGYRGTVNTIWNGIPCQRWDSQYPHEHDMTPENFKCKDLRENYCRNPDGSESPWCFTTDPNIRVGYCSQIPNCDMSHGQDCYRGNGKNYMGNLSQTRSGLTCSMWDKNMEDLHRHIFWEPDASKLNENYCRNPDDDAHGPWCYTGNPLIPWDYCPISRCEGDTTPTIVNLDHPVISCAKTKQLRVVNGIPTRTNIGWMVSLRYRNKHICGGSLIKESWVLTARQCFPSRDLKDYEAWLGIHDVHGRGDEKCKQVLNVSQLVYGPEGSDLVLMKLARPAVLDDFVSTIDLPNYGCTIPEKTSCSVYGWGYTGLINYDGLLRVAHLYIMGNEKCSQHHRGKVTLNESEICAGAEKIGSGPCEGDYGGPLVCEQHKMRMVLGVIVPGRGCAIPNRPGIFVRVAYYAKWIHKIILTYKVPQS
Method: Off-rate constants (Koff) of individual Nanobodies were determined by surface plasmon resonance on a Biacore T100 instrument.
Human HGF (R&D) was amine-coupled to a CM5 sensor chip at a density of 2500 relative units. Remaining reactive groups were inactivated using ethanolamine. Nanobody binding was assessed at a single dilution of periplasmic extract, whereas c-Met was tested with a single concentration of 10 nM. Each sample was injected for 2 min at a flow rate of 45 μl/min to allow for binding to chip-bound antigen. Next, binding buffer without Nanobody was sent over the chip at the same flow rate to allow dissociation of bound Nanobody. After 10 min, remaining bound analyte was removed by injecting regeneration solution (1M NaCl, 50 mM NaOH).

[2] = biological target: T2, human HGF (R&D material and Peprotech material, values averaged over both) (human, UniProt P14210 32-728); assay: SPR (Biacore T100), purified Nanobody, biphasic dissociation, kd1 fitted 125-185 s after injection start
T2 construct: As printed they differ in one letter
T2 sequence (P14210 32-728 limits assumed): as above

[3] = biological target: T2, human HGF (R&D material and Peprotech …); assay: SPR (Biacore T100), purified Nanobody, biphasic dissociation, kd2 fitted 300-720 s after injection start
[4] = biological target: T2, human HGF (R&D material and Peprotech …); assay: SPR (Biacore T100), purified Nanobody, average of R&D and Peprotech HGF
Method: Affinity constants (Kd) of individual purified Nanobody clones were determined by surface plasmon resonance on a Biacore T100 instrument essentially as described above. The average was taken of an analysis performed on R&D material and Peprotech material.

[5] = biological target: T1, human HGF (R&D Systems, 294-HG/CF); assay: AlphaScreen competition, serial dilution of purified Nanobody; inhibition of biotinylated human HGF binding to c-Met-Fc
Method: (§1) In brief, 5 μl of 1/5 prediluted periplasmic extract of individual Nanobody clones were incubated with 3 nM biotinylated HGF, 2 nM c-Met-Fc, streptavidin coated donor beads and anti-human IgG1 Fc Nanobody covalently coupled AlphaScreen acceptor beads. Monoclonal antibody clone 24612 (R&D systems) known to inhibit the HGF/c-Met-Fc interaction, was used as a positive control. Assays were read in an Envision AlphaScreen™ option fitted multimode reader (Perkin Elmer). Individual clones were scored as putative HGF/c-Met-Fc interaction inhibiting if the presence of the periplasmic extract decreased the fluorescent signal of the acceptor beads. Both inhibitory and non-inhibitory clones were identified. A 10-fold reduction in signal with respect to the negative control (irrelevant periplasmic extract and buffer) was used to select the HGF/c-Met inhibiting Nanobodies. As a positive control, anti-HGF monoclonal antibody (R&D systems, clone 24612) was included. FIG. 2 depicts an example of screen of periplasmic extracts using AlphaScreen.
(§2) Serial dilutions of purified Nanobodies were then analyzed for their ability to block the interaction of human HGF with c-Met-Fc using the same AlphaScreen™ assay as described above (1.4). […]

[6] = biological target: T2, human HGF (R&D material and Peprotech …); assay: SPR (Biacore T100), summary table
[7] = biological target: T1, human HGF (R&D Systems, 294-HG/CF); assay: AlphaScreen competition, biotinylated HGF and c-Met-Fc, dilution series of purified Nanobody
Method: as §1, §2

koff [1]: 0.00545 s⁻¹
koff [2]: 0.00577 s⁻¹
koff [3]: 0.00213 s⁻¹
B1: 6F6 (VHH)
VHH: EVQLVESGGGLVQPGGSLRLSCAASGSILGINAMGWYRQAPGKQRELVAVINSGGSTNYADSVKGRFTISRDNAKNTVYLQMNSLKPEDTAVYYCNADEWGDYPGQVYDYWGQGTQVTVSS
notes: anti-HGF Nanobody clone; not shown: c-myc and His6 tags

Kd [4]: 0.67 nM
koff [4]: 0.000691 s⁻¹
kon [4]: 1.06e+06 M⁻¹ s⁻¹
koff [1]: 0.000936 s⁻¹
IC50 (read off the curve) [5]: ~3 nM
B2: 7G6 (VHH)
VHH: EVQLVESGGGLVQAGGSLRLSCAVSGRTFSPYTMGWFRRAPGKEREFVAARTWSGGVAWYADSVKGRFTISSDNAENMVYLQMNSLKPEDTAVYYCAAKSPGRTYSPREERAYARWGQGTQVTVSS
notes: as for B1

koff [6]: 0.001 s⁻¹
koff [1]: 0.00107 s⁻¹
IC50 [7]: 6.6 nM
koff [2]: 0.00237 s⁻¹
koff [3]: 0.00102 s⁻¹
B4: 9G6 (VHH)
VHH: EVQLVESGGGLVQAGGSLRLSCAASGRTLSDYTMGWFRQAPGKEREFVARINTGGPITSYSDSVKGRFTISRDNAKNTVYLQMNSLKPEDTAVYNCAARLPTKMSPRDYSSYAYRGQGTQVTVSS
notes: as for B1

Kd [6]: 7.37 nM
koff [6]: 0.006 s⁻¹
Kd [4]: 7.37 nM
koff [4]: 0.00573 s⁻¹
kon [4]: 753000 M⁻¹ s⁻¹
koff [1]: 0.00178 s⁻¹
IC50 [7]: 2.8 nM
B6: 6G6 (VHH)
VHH: EVQLVESGGGLAQAGGSLRLSCAASGRSLSNYAMGWFRQAPGKEREIVCAISRSGSITTYADSVKGRFTIAKDNAANTVYLQMNSLKPEDTAAYYCAADPMYYGIPDQNWDYWGQGTQVTVSS
notes: as for B1

koff [1]: 0.00218 s⁻¹
B13: 9E6 (VHH)
VHH: EVQLVESGGGLAQAGGSLRLSCAASGRSLSNYAMGWFRQAPGKEREIVCAISRSGSITTYADSVKGRFTIAKDNAANTVYLQMNSLKPEDTAAYYCAADPMYYGIPDQNWDYWGQGTQVTVSS
notes: anti-HGF Nanobody clone, tested as periplasmic extract; not shown: c-myc and His6 tags

koff [6]: 0.003 s⁻¹
koff [1]: 0.0139 s⁻¹
IC50 [7]: 26.7 nM
koff [2]: 0.00313 s⁻¹
koff [3]: 0.00332 s⁻¹
B17: 6H6 (VHH)
VHH: EVQLMESGGGLVQAGGSLRLSCAASGRTFSSYAMGWFRQAPGKERENVAAISSSGGYTYYPDSVKGRFTISRDTAKNTVYLQMNSLKPDDTAVYYCAGTQPNFGWQLLLLQTEYDYWGQGTQVTVSS
notes: as for B1

koff [1]: 0.000377 s⁻¹
B21: 10G3 (VHH)
VHH: EVQLVESGGGLVQAGGSLRLSCADSGRTFSSYAMGWFRQAPGKEREFVAGVNWSGDSTYYADSVKGRFTISRDNAKNTVYLQMNSLKPEDAAVYYCAADPVGRADLYEYDYWGQGTQVTVSS
notes: as for B13

Continued, binder first:

B3: 6B6 (VHH)
VHH: EVQLVESGGGLVQPGGSLRLSCAASGFTFDDYAMSWGRQAPGKGLEWVSAISWNGGSTYYAESMKGRFTVSRDNAKNTLYLQMNSLKSEDTAVYYCAKALDPLGVLAGTSGIYDYWGQGTQVTVSS
notes: as for B13
koff [1]: 9.37e-06 s⁻¹

B5: 1F3 (VHH)
VHH 1: EVQLVESGGGLVQSGGSLKLSCAASGFTFSNYFMSWVRQTPEKRLEWVAYISSGGGSTYYPDSVKGRFTISRDNAKNTLYLQMSSLKSEDTAMYYCVRQGDGYYGDYAMDYWGQGTSVTVSS
VHH 2: DIQMTQSPASLSVSVGETVTITCRASENIYSNLAWYQQKQGKSPQLLVYDATHLPDGVPSRFSGSGSGTQFSLKINSLQSEDFGSYYCQHFWGTPYTFGGGTRLEIKR
koff [1]: 0.00345 s⁻¹

B7: 5D10 (VHH)
VHH: EVQLVESGGGLAQAGGSLRLSCAASGRSLSNYAMGWFRQAPGKEREIVCAISRSGSITTYADSVKGRFTIAKDNAANTVYLQMNSLKPEDTAAYYCAADPMYYGIPDQNWDYWGQGTQVTVSS
notes: as for B13
koff [1]: 0.00199 s⁻¹

B8: 5E8 (VHH)
VHH: EVQLVESGGGLAQAGGSLRLSCAASGRSLSNYAMGWFRQAPGKEREIVCAISRSGSITTYADSVKGRFTIAKDNAANTVYLQMNSLKPEDTAAYYCAADPMYYGIPDQNWDYWGQGTQVTVSS
notes: as for B13
koff [1]: 0.00163 s⁻¹

B9: 6A6 (VHH)
VHH: EVQLVESGGGLAQAGGSLRLSCAASGRSLSNYAMGWFRQAPGKEREIVCAISRSGSITTYADSVKGRFTIAKDNAANTVYLQMNSLKPEDTAAYYCAADPMYYGIPDQNWDYWGQGTQVTVSS
notes: as for B13
koff [1]: 0.00164 s⁻¹

B10: 6E6 (VHH)
VHH: EVQLVESGGGLAQAGGSLRLSCAASGRSLSNYAMGWFRQAPGKEREIVCAISRSGSITTYADSVKGRFTIAKDNAANTVYLQMNSLKPEDTAAYYCAADPMYYGIPDQNWDYWGQGTQVTVSS
notes: as for B13
koff [1]: 0.0017 s⁻¹

B11: 5B7 (VHH)
VHH: EVQLVESGGGLAQAGGSLRLSCAASGRSLSNYAMGWFRQAPGKEREIVCAISRSGSITTYADSVKGRFTIAKDNAANTVYLQMNSLKPEDTAAYYCAADPMYYGIPDQNWDYWGQGTQVTVSS
notes: as for B13
koff [1]: 0.00175 s⁻¹

B12: 6E11 (VHH)
VHH: EVQLVESGGGLAQAGGSLRLSCAASGRSLSNYAMGWFRQAPGKEREIVCAISRSGSITTYADSVKGRFTIAKDNAANTVYLQMNSLKPEDTAAYYCAADPMYYGIPDQNWDYWGQGTQVTVSS
notes: as for B13
koff [1]: 0.00168 s⁻¹

B14: 5G9 (VHH)
VHH: EVQLVESGGGLVQTGGSLRLSCAASGRTFSPYAAGWFRHAPGKEREFVTAITWSGGSTYYADSVKGRFTISRDNAKNTVYLQMNSLKPEDTAVYYCAASYRWGITHEFDYWGQGTQVTVSS
notes: as for B13
koff [1]: 0.0008 s⁻¹

B15: 6E10 (VHH)
VHH: EVQLVESGGGLVQAGGSLRLSCAASGRTDSSYAMGWFRQAPGKEHEFVAAISWSGGSTYYADSVKGRFTISRDNAKNTLYLQMNSLKPEDTAVYYCGASYRWGITHEYEYWGQGTQVTVSS
notes: as for B1
Kd [6]: 1.14 nM
koff [6]: 5e-05 s⁻¹
Kd [4]: 1.14 nM
koff [4]: 5.5e-05 s⁻¹
kon [4]: 49900 M⁻¹ s⁻¹
koff [1]: 0.000324 s⁻¹
IC50 [7]: 3 nM

B16: 1E9 (VHH)
VHH: EVQLVESGGGLVQPGGSLRLSCAASGFTLDHYTIGWFRQAPGNEREGVSCISSLDGSTYYADSVKGRFTISRDNAKDTVYLQMNSLKPEDTAVYYCAVAGCGAYGLIPYDYWGQGTQVTVSS
notes: as for B1
Kd [6]: 7.16 nM
koff [6]: 0.0005 s⁻¹
Kd [4]: 7.16 nM
koff [4]: 0.00052 s⁻¹
kon [4]: 92000 M⁻¹ s⁻¹
koff [1]: 0.00314 s⁻¹
IC50 [7]: 4.5 nM

B18: 1E2 (VHH)
VHH: EVQLVESGGGLVQPGGSLRLSCAASGRTFSSYAMGWFRQAPGKEREFVAGISWSGSSSYYADSVKGRFTISRDNAKNTVYLQMNSLKPEDTAVYYCAADPVGRADLYEYDYWGQGTQVTVSS
notes: as for B1
Kd [6]: 1.36 nM
koff [6]: 0.0001 s⁻¹
Kd [4]: 1.36 nM
koff [4]: 0.0001 s⁻¹
kon [4]: 75200 M⁻¹ s⁻¹
koff [1]: 0.00312 s⁻¹
IC50 [7]: 1.8 nM

B19: 1C7 (VHH)
VHH: EVQLVESGGGLVQAGGSLRLSCAASGRTFSSYAMGWFRQAPGKEREFVAGISWSGGSTYYADSVKGRFTISRDNAKNTVYLRMNSLKPEDTAVYYCAADPVGRADLYEYDYWGQGTQVTVSS
notes: as for B13
koff [1]: 0.00286 s⁻¹

B20: 6B2 (VHH)
VHH: EVQLVESGGGLVQAGGSLRLSCAASGRTFSSYAMGWFRQAPGKEREFVAAINWSGDSTYYADSVKGRFTISRDNAKNTVYLQMNSLKPEDTAVYYCAAGDVGRPDLYEYDYWGQGTQVTVSS
notes: as for B1
Kd [6]: ≤ 0.08 nM
koff [6]: ≤ 1e-05 s⁻¹
Kd [4]: 0.08 nM
koff [4]: 2.15e-06 s⁻¹
kon [4]: 27800 M⁻¹ s⁻¹
koff [1]: 0.000774 s⁻¹
IC50 [7]: 2.8 nM
